Experiments:
[1] = target: recombinant wild-type p105, His-tagged (E. coli) (UniProt P25799); assay: SEC
AUC = target: the molecule itself; assay: AUC

## p50, the 50 kD N-terminal product of recombinant p105 (E. coli) (domain or fragment)
[1]
  stoichiometry N: 1

B1: recombinant wild-type p105, His-tagged (E. coli) (natural protein, UniProt P25799-1 1-971, looked up)
chain: MADDDPYGTGQMFHLNTALTHSIFNAELYSPEIPLSTDGPYLQILEQPKQRGFRFRYVCEGPSHGGLPGASSEKNKKSYPQVKICNYVGPAKVIVQLVTNGKNIHLHAHSLVGKHCEDGVCTVTAGPKDMVVGFANLGILHVTKKKVFETLEARMTEACIRGYNPGLLVHSDLAYLQAEGGGDRQLTDREKEIIRQAAVQQTKEMDLSVVRLMFTAFLPDSTGSFTRRLEPVVSDAIYDSKAPNASNLKIVRMDRTAGCVTGGEEIYLLCDKVQKDDIQIRFYEEEENGGVWEGFGDFSPTDVHRQFAIVFKTPKYKDVNITKPASVFVQLRRKSDLETSEPKPFLYYPEIKDKEEVQRKRQKLMPNFSDSFGGGSGAGAGGGGMFGSGGGGGSTGSPGPGYGYSNYGFPPYGGITFHPGVTKSNAGVTHGTINTKFKNGPKDCAKSDDEESLTLPEKETEGEGPSLPMACTKTEPIALASTMEDKEQDMGFQDNLFLEKALQLARRHANALFDYAVTGDVKMLLAVQRHLTAVQDENGDSVLHLAIIHLHAQLVRDLLEVTSGLISDDIINMRNDLYQTPLHLAVITKQEDVVEDLLRVGADLSLLDRWGNSVLHLAAKEGHDRILSILLKSRKAAPLIDHPNGEGLNAIHIAVMSNSLPCLLLLVAAGAEVNAQEQKSGRTALHLAVEYDNISLAGCLLLEGDAHVDSTTYDGTTPLHIAAGRGSTRLAALLKAAGADPLVENFEPLYDLDDSWEKAGEDEGVVPGTTPLDMAANWQVFDILNGKPYEPVFTSDDILPQGDMKQLTEDTRLQLCKLLEIPDPDKNWATLAQKLGLGILNNAFRLSPAPSKTLMDNYEVSGGTIKELMEALQQMGYTEAIEVIQAAFRTPATTASSPVTTAQVHCLPLSSSSTRQHIDELRDSDSVCDSGVETSFRKLSFTESLTGDSPLLSLNKMPHGYGQEGPIEGKI
AUC
  stoichiometry N: 2

— PMC4167889 (Molecular cell, 2009)
